In the supplement of paper PMC11246515:
± gives the standard deviation of the averaged measurements.

Test: total protein half-life in vivo (active degradation + dilution); higher = more stable protein
[1] = E. coli NCM3722 delta-clpP delta-lon delta-hslV, growth: N-lim chemostat, doubling time 6 h
[2] = E. coli NCM3722 delta-clpP, growth: N-lim chemostat, doubling time 6 h
[3] = E. coli NCM3722 delta-hslV, growth: N-lim chemostat, doubling time 6 h
[4] = E. coli NCM3722 delta-lon, growth: N-lim chemostat, doubling time 6 h
[5] = E. coli NCM3722 delta-smpB, growth: N-lim chemostat, doubling time 6 h
[6] = wild type E. coli NCM3722, growth: C-lim chemostat, doubling time 3 h
[7] = wild type E. coli NCM3722, growth: C-lim chemostat, doubling time 6 h
[8] = wild type E. coli NCM3722, growth: C-lim chemostat, doubling time 12 h
[9] = wild type E. coli NCM3722, growth: N-lim chemostat, doubling time 6 h
[10] = wild type E. coli NCM3722, growth: N-lim chemostat, doubling time 12 h
[11] = wild type E. coli NCM3722, growth: P-lim chemostat, doubling time 6 h
[12] = wild type E. coli NCM3722, growth: P-lim chemostat, doubling time 12 h

MQVDLLGSAQSAHALHLFHQHSPLVHCMTNDVVQTFTANTLLALGASPAMVIETEEASQFAAIASALLINVGTLTQPRAQAMRAAVEQAKSSQTPWTLDPVAVGALDYRRHFCHELLSFKPAAIRGNASEIMALAGIANGGRGVDTTDAAANAIPAAQTLARETGAIVVVTGEMDYVTDGHRIIGIHGGDPLMTKVVGTGCALSAVVAACCALPGDTLENVASACHWMKQAGERAVARSEGPGSFVPHFLDALWQLTQEVQA
total protein half-life in vivo [1]: 4.08 ± 0.34 h
total protein half-life in vivo [2]: 3.41 ± 0.17 h
total protein half-life in vivo [3]: 3.27 ± 0.13 h
total protein half-life in vivo [4]: 3.94 h
total protein half-life in vivo [5]: 3.42 ± 0.044 h
total protein half-life in vivo [6]: 3.01 ± 0.68 h
total protein half-life in vivo [7]: 4.89 ± 1.2 h
total protein half-life in vivo [8]: 8.48 ± 1 h
total protein half-life in vivo [9]: 3.4 ± 0.41 h
total protein half-life in vivo [10]: 5.17 ± 0.24 h
total protein half-life in vivo [11]: 5.64 ± 0.14 h
total protein half-life in vivo [12]: 10.3 ± 0.67 h

MLHPRARTMLLLSLPAVAIGIASSLILIVVMKIASVLQNLLWQRLPGTLGIAQDSPLWIIGVLTLTGIAVGLVIRFSQGHAGPDPACEPLIGAPVPPSALPGLIVALILGLAGGVSLGPEHPIMTVNIALAVAIGARLLPRVNRMEWTILASAGTIGALFGTPVAAALIFSQTLNGSSEVPLWDRLFAPLMAAAAGALTTGLFFHPHFSLPIAHYGQMEMTDILSGAIVAAIAIAAGMVAVWCLPRLHAMMHQMKNPVLVLGIGGFILGILGVIGGPVSLFKGLDEMQQMVANQAFSTSDYFLLAVIKLAALVVAAASGFRGGRIFPAVFVGVALGLMLHEHVPAVPAAITVSCAILGIVLVVTRDGWLSLFMAAVVVPNTTLLPLLCIVMLPAWLLLAGKPMMMVNRPKQQPPHDNV
total protein half-life in vivo [2]: 6.28 h
total protein half-life in vivo [3]: 7.8 h
total protein half-life in vivo [4]: 5.98 h
total protein half-life in vivo [8]: 11.1 h
total protein half-life in vivo [9]: 6.78 h
total protein half-life in vivo [10]: 12.5 h
total protein half-life in vivo [12]: > 16 h

MNFRRLKYFVKIVDIGSLTQAAEVLHIAQPALSQQVATLEGELNQQLLIRTKRGVTPTDAGKILYTHARAILRQCEQAQLAVHNVGQALSGQVSIGFAPGTAASSITMPLLQAVRAEFPEIVIYLHENSGAVLNEKLINHQLDMAVIYEHSPVAGVSSQALLKEDLFLVGTQDCPGQSVDVNAIAQMNLFLPSDYSAIRLRVDEAFSLRRLTAKVIGEIESIATLTAAIASGMGVAVLPESAARSLCGAVNGWMSRITTPSMSLSLSLNLPARANLSPQAQAVKELLMSVISSPVMEKRQWQLVS
total protein half-life in vivo [1]: 6.26 ± 0.89 h
total protein half-life in vivo [2]: 2.6 ± 0.032 h
total protein half-life in vivo [3]: 0.485 ± 0.11 h
total protein half-life in vivo [4]: 0.469 h
total protein half-life in vivo [5]: 1.83 ± 0.15 h
total protein half-life in vivo [9]: 0.978 ± 0.3 h
total protein half-life in vivo [10]: 1.31 ± 0.14 h

MPRFAANLSMMFTEVPFIERFAAARKAGFDAVEFLFPYNYSTLQIQKQLEQNHLTLALFNTAPGDINAGEWGLSALPGREHEAHADIDLALEYALALNCEQVHVMAGVVPAGEDAERYRAVFIDNIRYAADRFAPHGKRILVEALSPGVKPHYLFSSQYQALAIVEEVARDNVFIQLDTFHAQKVDGNLTHLIRDYAGKYAHVQIAGLPDRHEPDDGEINYPWLFRLFDEVGYQGWIGCEYKPRGLTEEGLGWFDAWR
total protein half-life in vivo [1]: 3.98 h
total protein half-life in vivo [2]: 2.21 h
total protein half-life in vivo [3]: 2.23 h
total protein half-life in vivo [4]: 2.48 ± 0.15 h
total protein half-life in vivo [5]: 2.41 ± 0.048 h
total protein half-life in vivo [6]: 2.829 ± 0.0073 h
total protein half-life in vivo [7]: 3.68 ± 0.23 h
total protein half-life in vivo [8]: 6.54 ± 0.17 h
total protein half-life in vivo [10]: 3.45 h
total protein half-life in vivo [11]: 4.28 h
total protein half-life in vivo [12]: 8.69 ± 0.052 h

MAEFETTFADLGLKAPILEALNDLGYEKPSPIQAECIPHLLNGRDVLGMAQTGSGKTAAFSLPLLQNLDPELKAPQILVLAPTRELAVQVAEAMTDFSKHMRGVNVVALYGGQRYDVQLRALRQGPQIVVGTPGRLLDHLKRGTLDLSKLSGLVLDEADEMLRMGFIEDVETIMAQIPEGHQTALFSATMPEAIRRITRRFMKEPQEVRIQSSVTTRPDISQSYWTVWGMRKNEALVRFLEAEDFDAAIIFVRTKNATLEVAEALERNGYNSAALNGDMNQALREQTLERLKDGRLDILIATDVAARGLDVERISLVVNYDIPMDSESYVHRIGRTGRAGRAGRALLFVENRERRLLRNIERTMKLTIPEVELPNAELLGKRRLEKFAAKVQQQLESSDLDQYRALLSKIQPTAEGEELDLETLAAALLKMAQGERTLIVPPDAPMRPKREFRDRDDRGPRDRNDRGPRGDREDRPRRERRDVGDMQLYRIEVGRDDGVEVRHIVGAIANEGDISSRYIGNIKLFASHSTIELPKGMPGEVLQHFTRTRILNKPMNMQLLGDAQPHTGGERRGGGRGFGGERREGGRNFSGERREGGRGDGRRFSGERREGRAPRRDDSTGRRRFGGDA [P0A9P6]
total protein half-life in vivo [1]: 5.66 ± 0.077 h
total protein half-life in vivo [2]: 0.972 ± 0.029 h
total protein half-life in vivo [3]: 0.567 ± 0.1 h
total protein half-life in vivo [4]: 4.78 ± 0.32 h
total protein half-life in vivo [5]: 0.849 ± 0.089 h
total protein half-life in vivo [6]: 1.4 ± 0.34 h
total protein half-life in vivo [7]: 1.34 ± 0.29 h
total protein half-life in vivo [8]: 1.19 ± 0.17 h
total protein half-life in vivo [9]: 2.26 ± 2 h
total protein half-life in vivo [10]: 0.902 ± 0.095 h
total protein half-life in vivo [11]: 0.635 ± 0.37 h
total protein half-life in vivo [12]: 0.864 ± 0.3 h

MSTEIKTQVVVLGAGPAGYSAAFRCADLGLETVIVERYNTLGGVCLNVGCIPSKALLHVAKVIEEAKALAEHGIVFGEPKTDIDKIRTWKEKVINQLTGGLAGMAKGRKVKVVNGLGKFTGANTLEVEGENGKTVINFDNAIIAAGSRPIQLPFIPHEDPRIWDSTDALELKEVPERLLVMGGGIIGLEMGTVYHALGSQIDVVEMFDQVIPAADKDIVKVFTKRISKKFNLMLETKVTAVEAKEDGIYVTMEGKKAPAEPQRYDAVLVAIGRVPNGKNLDAGKAGVEVDDRGFIRVDKQLRTNVPHIFAIGDIVGQPMLAHKGVHEGHVAAEVIAGKKHYFDPKVIPSIAYTEPEVAWVGLTEKEAKEKGISYETATFPWAASGRAIASDCADGMTKLIFDKESHRVIGGAIVGTNGGELLGEIGLAIEMGCDAEDIALTIHAHPTLHESVGLAAEVFEGSITDLPNPKAKKK [P0A9P0]
total protein half-life in vivo [1]: 6.89 ± 0.093 h
total protein half-life in vivo [2]: 6.28 ± 0.24 h
total protein half-life in vivo [3]: 6.35 ± 0.43 h
total protein half-life in vivo [4]: 6.43 ± 0.36 h
total protein half-life in vivo [5]: 6.01 ± 0.24 h
total protein half-life in vivo [6]: 3.11 ± 0.081 h
total protein half-life in vivo [7]: 6.68 ± 0.33 h
total protein half-life in vivo [8]: 12.6 ± 1.1 h
total protein half-life in vivo [9]: 6.23 ± 0.55 h
total protein half-life in vivo [10]: 13.1 ± 0.57 h
total protein half-life in vivo [11]: 6.11 ± 0.12 h
total protein half-life in vivo [12]: 14.4 ± 0.26 h

MSQPLNADQELVSDVVACQLVIKQILDVLDVIAPVEVREKMSSQLKNIDFTNHPAAADPVTMRAIQKAIALIELKFTPQGESH [P0AD10]
total protein half-life in vivo [1]: 5.83 ± 0.39 h
total protein half-life in vivo [3]: 5.15 h
total protein half-life in vivo [5]: 3.91 ± 0.9 h
total protein half-life in vivo [6]: 3.21 h
total protein half-life in vivo [7]: 4.53 ± 0.82 h
total protein half-life in vivo [8]: 8.31 ± 0.17 h
total protein half-life in vivo [9]: 3.32 h
total protein half-life in vivo [10]: 6.2 h
total protein half-life in vivo [11]: 4.76 ± 1.4 h
total protein half-life in vivo [12]: 10.3 ± 0.33 h
